By Kd is commonly meant the constant that tells how readily two partners part at equilibrium. Read a low Kd as tighter binding.

Bounds are passed on as bounds.

Assay in all cases: SPR
In general terms: In SPR one partner is held on a chip, and binding of the other changes the refractive index at the surface.

In test [1] the target is Neurexin-1β (+S4) (Mus musculus, UniProt P0DI97).
The target in test [2] is human LRRTM2 LRR domain, D352A mutant (human, UniProt O43300 34-371, D352A).
The target in test [3] is human LRRTM2 LRR domain, F357Y mutant (human, UniProt O43300 34-371, F357Y).

Neurexin-1β (+S4), sequence (P0DI97 47-392): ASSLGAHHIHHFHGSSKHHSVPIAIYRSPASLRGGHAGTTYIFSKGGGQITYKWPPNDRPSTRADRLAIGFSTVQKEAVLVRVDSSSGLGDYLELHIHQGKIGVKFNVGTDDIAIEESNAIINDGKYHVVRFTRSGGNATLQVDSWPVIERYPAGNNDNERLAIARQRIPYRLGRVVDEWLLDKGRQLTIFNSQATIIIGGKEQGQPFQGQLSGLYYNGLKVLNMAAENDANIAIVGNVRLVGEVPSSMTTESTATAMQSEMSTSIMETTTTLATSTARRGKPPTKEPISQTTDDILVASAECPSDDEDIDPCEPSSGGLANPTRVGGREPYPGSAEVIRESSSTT

B1: LRRTM2 (protein)
chain: CPPKCRCEKLLFYCDSQGFHSVPNATDKGSLGLSLRHNHITALERDQFASFSQLTWLHLDHNQISTVKEDAFQGLYKLKELILSSNKIFYLPNTTFTQLINLQNLDLSFNQLSSLHPELFYGLRKLQTLHLRSNSLRTIPVRLFWDCRSLEFLDLSTNRLRSLARNGFAGLIKLRELHLEHNQLTKINFAHFLRLSSLHTLFLQWNKISNLTCGMDWTWSTLEKLDLTGNEIKAIDLTVFETMPNLKILLMDNNKLNSLDSKILNSLKSLTTVGLSGNLWECSPRVCALASWLGSFQGRWEHSILCHSPDHTQGEDILDAVHGFQLCWNLSTTVTAMATTYRDPTTEYTKISSSSYHVGDKEIPTTAGIAVTTEEHFPEPDNAIFTQRVITGTMALLFSFFFIIFIVFISRKCCPPTLRRIRQCSMIQNHRQLRSQTRLHMSNMSDQGPYNEYEPTHEGPFIIINGYGQCKCQQLPYKECEV
With B1, the Kd in test [1] was above 80 µM.

B2: human Nrxn1β LNS domain (–S4), wild type (domain or fragment)
chain: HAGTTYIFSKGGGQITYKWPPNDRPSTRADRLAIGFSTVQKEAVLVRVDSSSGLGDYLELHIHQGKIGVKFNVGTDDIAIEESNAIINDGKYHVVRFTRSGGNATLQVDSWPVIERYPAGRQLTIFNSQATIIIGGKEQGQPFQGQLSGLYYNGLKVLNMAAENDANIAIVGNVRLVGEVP
With B2, the Kd in test [2] was above 34 µM; in test [3], 19.3 µM.

These data come from PMC6160412 (2018).
